The supplement of paper PMC11316812
± gives the standard deviation of the averaged measurements.

Legend:
MCF7 = assay: percentage of EdU-negative (G0-arrested) nuclei per well, 72 h; higher = more G0 arrest; conditions: reference: sequence is the full UniProt precursor, the tested protein was the secreted form or ectodomain
hTERT-HMEC = assay: as above; conditions: reference: sequence is the full UniProt precursor, the tested protein was the secreted form or ectodomain
[1] = protein concentration 0.0225 µM
[2] = protein concentration 0.00575 µM
[3] = protein concentration 0.0575 µM
[4] = protein concentration 0.0085 µM
[5] = protein concentration 0.007735 µM
[6] = protein concentration 0.07735 µM
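Further: secreted proteins added to cultured cells, EdU pulse at the end, nuclei found by Hoechst imaging, EdU status from nuclear versus surrounding ring intensity ratio, PBS as neutral control.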

Sequence | percentage of EdU-negative (MCF7; [1]) [%] | percentage of EdU-negative (MCF7; protein concentration 0.225 µM) [%] | percentage of EdU-negative (hTERT-HMEC; [1]) [%] | percentage of EdU-negative (hTERT-HMEC; protein concentration 0.225 µM) [%] | other results
MVRMVPVLLSLLLLLGPAVPQENQDGRYSLTYIYTGLSKHVEDVPAFQALGSLNDLQFFRYNSKDRKSQPMGLWRQVEGMEDWKQDSQLQKAREDIFMETLKDIVEYYNDSNGSHVLQGRFGCEIENNRSSGAFWKYYYDGKDYIEFNKEIPAWVPFDPAAQITKQKWEAEPVYVQRAKAYLEEECPATLRKYLKYSKNILDRQDPPSVVVTSHQAPGEKKKLKCLAYDFYPGKIDVHWTRAGEVQEPELRGDVLHNGNGTYQSWVVVAVPPQDTAPYSCHVQHSSLAQPLVVPWEAS | 26.1 ± 2 | 26.1 ± 1.9 | 5.49 ± 0.45 | 5.19 ± 0.89 | 
MVRPMLLLSLGLLAGLLPALAACPQNCHCHSDLQHVICDKVGLQKIPKVSEKTKLLNLQRNNFPVLAANSFRAMPNLVSLHLQHCQIREVAAGAFRGLKQLIYLYLSHNDIRVLRAGAFDDLTELTYLYLDHNKVTELPRGLLSPLVNLFILQLNNNKIRELRAGAFQGAKDLRWLYLSENALSSLQPGALDDVENLAKFHVDRNQLSSYPSAALSKLRVVEELKLSHNPLKSIPDNAFQSFGRYLETLWLDNTNLEKFSDGAFLGVTTLKHVHLENNRLNQLPSNFPFDSLETLALTNNPWKCTCQLRGLRRWLEAKASRPDATCASPAKFKGQHIRDTDAFRSCKFPTKRSKKAGRH |  |  |  |  | percentage of EdU-negative (MCF7; [2]): 26.1 ± 0.54%; percentage of EdU-negative (MCF7; [3]): 29 ± 0.99%; percentage of EdU-negative (hTERT-HMEC; [2]): 5.33 ± 0.1%; percentage of EdU-negative (hTERT-HMEC; [3]): 7.33 ± 0.97%
MVSALRGAPLIRVHSSPVSSPSVSGPRRLVSCLSSQSSALSQSGGGSTSAAGIEARSRALRRRWCPAGIMLLALVCLLSCLLPSSEAKLYGRCELARVLHDFGLDGYRGYSLADWVCLAYFTSGFNAAALDYEADGSTNNGIFQINSRRWCSNLTPNVPNVCRMYCSDLLNPNLKDTVICAMKITQEPQGLGYWEAWRHHCQGKDLTEWVDGCDF [Q8IXA5] | 23.7 ± 1.4 | 23.6 ± 2.9 | 4.64 ± 0.051 | 10 ± 1.4 | 
MVSQALRLLCLLLGLQGCLAAGGVAKASGGETRDMPWKPGPHRVFVTQEEAHGVLHRRRRANAFLEELRPGSLERECKEEQCSFEEAREIFKDAERTKLFWISYSDGDQCASSPCQNGGSCKDQLQSYICFCLPAFEGRNCETHKDDQLICVNENGGCEQYCSDHTGTKRSCRCHEGYSLLADGVSCTPTVEYPCGKIPILEKRNASKPQGRIVGGKVCPKGECPWQVLLLVNGAQLCGGTLINTIWVVSAAHCFDKIKNWRNLIAVLGEHDLSEHDGDEQSRRVAQVIIPSTYVPGTTNHDIALLRLHQPVVLTDHVVPLCLPERTFSERTLAFVRFSLVSGWGQLLDRGATALELMVLNVPRLMTQDCLQQSRKVGDSPNITEYMFCAGYSDGSKDSCKGDSGGPHATHYRGTWYLTGIVSWGQGCATVGHFGVYTRVSQYIEWLQKLMRSEPRPGVLLRAPFP |  |  |  |  | percentage of EdU-negative (MCF7; [4]): 24.3 ± 4.2%; percentage of EdU-negative (MCF7; protein concentration 0.085 µM): 24.2 ± 0.32%; percentage of EdU-negative (hTERT-HMEC; [4]): 4.77 ± 0.36%; percentage of EdU-negative (hTERT-HMEC; protein concentration 0.085 µM): 5.93 ± 1.7%
MVSRMVSTMLSGLLFWLASGWTPAFAYSPRTPDRVSEADIQRLLHGVMEQLGIARPRVEYPAHQAMNLVGPQSIEGGAHEGLQHLGPFGNIPNIVAELTGDNIPKDFSEDQGYPDPPNPCPVGKTADDGCLENTPDTAEFSREFQLHQHLFDPEHDYPGLGKWNKKLLYEKMKGGERRKRRSVNPYLQGQRLDNVVAKKSVPHFSDEDKDPE | 26.6 ± 1.8 | 25.7 ± 2.2 | 5.414 ± 0.019 | 5.28 ± 0.35 | 
MVSYWDTGVLLCALLSCLLLTGSSSGSKLKDPELSLKGTQHIMQAGQTLHLQCRGEAAHKWSLPEMVSKESERLSITKSACGRNGKQFCSTLTLNTAQANHTGFYSCKYLAVPTSKKKETESAIYIFISDTGRPFVEMYSEIPEIIHMTEGRELVIPCRVTSPNITVTLKKFPLDTLIPDGKRIIWDSRKGFIISNATYKEIGLLTCEATVNGHLYKTNYLTHRQTNTIIDVQISTPRPVKLLRGHTLVLNCTATTPLNTRVQMTWSYPDEKNKRASVRRRIDQSNSHANIFYSVLTIDKMQNKDKGLYTCRVRSGPSFKSVNTSVHIYDKAFITVKHRKQQVLETVAGKRSYRLSMKVKAFPSPEVVWLKDGLPATEKSARYLTRGYSLIIKDVTEEDAGNYTILLSIKQSNVFKNLTATLIVNVKPQIYEKAVSSFPDPALYPLGSRQILTCTAYGIPQPTIKWFWHPCNHNHSEARCDFCSNNEESFILDADSNMGNRIESITQRMAIIEGKNKMASTLVVADSRISGIYICIASNKVGTVGRNISFYITDVPNGFHVNLEKMPTEGEDLKLSCTVNKFLYRDVTWILLRTVNNRTMHYSISKQKMAITKEHSITLNLTIMNVSLQDSGTYACRARNVYTGEEILQKKEITIRDQEAPYLLRNLSDHTVAISSSTTLDCHANGVPEPQITWFKNNHKIQQEPGIILGPGSSTLFIERVTEEDEGVYHCKATNQKGSVESSAYLTVQGTSDKSNLELITLTCTCVAATLFWLLLTLFIRKMKRSSSEIKTDYLSIIMDPDEVPLDEQCERLPYDASKWEFARERLKLGKSLGRGAFGKVVQASAFGIKKSPTCRTVAVKMLKEGATASEYKALMTELKILTHIGHHLNVVNLLGACTKQGGPLMVIVEYCKYGNLSNYLKSKRDLFFLNKDAALHMEPKKEKMEPGLEQGKKPRLDSVTSSESFASSGFQEDKSLSDVEEEEDSDGFYKEPITMEDLISYSFQVARGMEFLSSRKCIHRDLAARNILLSENNVVKICDFGLARDIYKNPDYVRKGDTRLPLKWMAPESIFDKIYSTKSDVWSYGVLLWEIFSLGGSPYPGVQMDEDFCSRLREGMRMRAPEYSTPEIYQIMLDCWHRDPKERPRFAELVEKLGDLLQANVQQDGKDYIPINAILTGNSGFTYSTPAFSEDFFKESISAPKFNSGSSDDVRYVNAFKFMSLERIKTFEELLPNATSMFDDYQGDSSTLLASPMLKRFTWTDSKPKASLKIDLRVTSKSKESGLSDVSRPSFCHSSCGHVSEGKRRFTYDHAELERKIACCSPPPDYNSVVLYSTPPI |  |  |  |  | percentage of EdU-negative (MCF7; [5]): 26.6 ± 3%; percentage of EdU-negative (MCF7; [6]): 28.1 ± 1.6%; percentage of EdU-negative (hTERT-HMEC; [5]): 4.97 ± 0.54%; percentage of EdU-negative (hTERT-HMEC; [6]): 5.7 ± 0.039%
MVTLRKRTLKVLTFLVLFIFLTSFFLNYSHTMVATTWFPKQMVLELSENLKRLIKHRPCTCTHCIGQRKLSAWFDERFNQTMQPLLTAQNALLEDDTYRWWLRLQREKKPNNLNDTIKELFRVVPGNVDPMLEKRSVGCRRCAVVGNSGNLRESSYGPEIDSHDFVLRMNKAPTAGFEADVGTKTTHHLVYPESFRELGDNVSMILVPFKTIDLEWVVSAITTGTISHTYIPVPAKIRVKQDKILIYHPAFIKYVFDNWLQGHGRYPSTGILSVIFSMHVCDEVDLYGFGADSKGNWHHYWENNPSAGAFRKTGVHDADFESNVTATLASINKIRIFKGR | 24.2 ± 3.6 | 28.079 ± 0.0073 | 5.6 ± 0.99 | 6.41 ± 0.73 | 
